Test results as given in patent publication US20050064539A1.

Molecular target: mannose-6-phosphate receptor (human (cultured skin fibroblasts from a Fabry disease patient)) (UniProt O00264)
Experiment: cell-based or functional assay

Chain of UniProt O00264 (O00264 whole entry): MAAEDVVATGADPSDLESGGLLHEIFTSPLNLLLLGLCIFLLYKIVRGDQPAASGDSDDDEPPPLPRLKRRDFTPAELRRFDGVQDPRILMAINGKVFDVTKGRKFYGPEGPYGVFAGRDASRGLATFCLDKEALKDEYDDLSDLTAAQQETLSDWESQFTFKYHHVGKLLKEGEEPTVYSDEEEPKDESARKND

mannosidase-treated α-galactosidase (human α-galactosidase produced by S. cerevisiae strain HPY21G, treated with Cellulomonas SO-5-derived α-mannosidase) (from UniProt P06280 32-429) (enzyme)
α-galactosidase activity in the cell extract of Fabry patient-derived fibroblasts 18 hours after adding enzyme at 1 µg/ml (uptake experiment): 3 fold
